Laboratory results: IntAct's records for PubMed 26258637

B1: Rab-3A-interacting protein (Homo sapiens), Q96QF0-2 (parent)
chain: MANDPLEGFHEVNLASPTSPDLLGVYESGTQEQTTSPSVIYRPHPSALSSVPIQANALDVSELPTQPVYSSPRRLNCAEISSISFHVTDPAPCSTSGVTAGLTKLTTRKDNYNAEREFLQGATITEACDGSDDIFGLSTDSLSRLRSPSVLEVREKGYERLKEELAKAQRELKLKDEECERLSKVRDQLGQELEELTASLFEEAHKMVREANIKQATAEKQLKEAQGKIDVLQAEVAALKTLVLSSSPTSPTQEPLPGGKTPFKKGHTRNKSTSSAMSGSHQDLSVIQPIVKDCKEADLSLYNEFRLWKDEPTMDRTCPFLDKIYQEDIFPCLTFSKSELASAVLEAVENNTLSIEPVGLQPIRFVKASAVECGGPKKCALTGQSKSCKHRIKLGDSSNYYYISPFCRYRITSVCNFFTYIRYIQQGLVKQQDVDQMFWEVMQLRKEMSLAKLGYFKEEL
B2: Ras-related protein Rab-11A (Homo sapiens), P62491 (parent)
chain: MGTRDDEYDYLFKVVLIGDSGVGKSNLLSRFTRNEFNLESKSTIGVEFATRSIQVDGKTIKAQIWDTAGQERYRAITSAYYRGAVGALLVYDIAKHLTYENVERWLKELRDHADSNIVIMLVGNKSDLRHLRAVPTDEARAFAEKNGLSFIETSALDSTNVEAAFQTILTEIYRIVSQKQMSDRRENDMSPSNNVVPIHVPPTTENKPKVQCCQNI
partner: B1 chain

Variants of: B1
Details: with rb11a_human RAB11A
For MANDPLEGFHEVNLASPTSPDLLGVYESGTQEQTTSPSVIYRPHPSALSSVPIQANALDVSELPTQPVYSSPRRLNCAEISSISFHVTDPAPCSTSGVTAGLTKLTTRKDNYNAEREFLQGATITEACDGSDDIFGLSTDSLSRLRSPSVLEVREKGYERLKEELAKAQRELKLKDEECERLSKVRDQLGQELEELTASLFEEAHKMVREANIKQATAEKQLKEAQGKIDVLQAEVAALKTLVLSSSPTSPTQEPLPGGKTPFKKGHTRNKSTSSAMSGSHQDLSVIQPIVKDCKEADLSLYNEFRLWKDEPTMDRTCPFLDKIYQEDIFPCLTFSKSELASAVLEAVENNTLSIEPVGLQPIRFVKASAVECGGPKKCALTGQSKSCKHRIKLGDSSNYYYISPFCRYRITSVCNFFAYIRAIQQGAVKQQDVDQMFWEVMQLRKEMSLAKLGYFKEEL [T419A;Y423A;L428A], the “effect of a mutation on the interaction” value was “decreasing interaction strength”.

Variants of: B2
Details: with RAB3IP
With MGTRDDEYDYLFKVVLIGDSGVGKNNLLSRFTRNEFNLESKSTIGVEFATRSIQVDGKTIKAQIWDTAGQERYRAITSAYYRGAVGALLVYDIAKHLTYENVERWLKELRDHADSNIVIMLVGNKSDLRHLRAVPTDEARAFAEKNGLSFIETSALDSTNVEAAFQTILTEIYRIVSQKQMSDRRENDMSPSNNVVPIHVPPTTENKPKVQCCQNI [S25N] the “effect of a mutation on the interaction” value was “disrupting interaction strength”.
